What all share (experiment): 125I-Tyr11-SRIF-14 displacement
Assay [1] addresses human cloned somatostatin receptor 2 (human) (UniProt P30874).
The target of assay [2] is human cloned somatostatin receptor 3 (human) (UniProt P32745).
Assay [3] concerns the target human cloned somatostatin receptor 5 (human) (UniProt P35346).
In assay [4] the target is human cloned somatostatin receptor 1 (human) (UniProt P30872).
Assay [5] deals with human cloned somatostatin receptor 4 (human) (UniProt P31391).

*1 amine or outer side, *2 acyl side, *3 side chain or, on linkers, in order; H or OH if unused. Bridges are numbered along the chain shown (N, C = ends). [ ]: non-standard residue; d: D form. The star is where a group is joined. DOTA = O=C(O)CN1CCN(CC(=O)O)CCN(CC(=O)*)CCN(CC(=O)O)CC1; N(2-mercaptoethyl)Gly = O=C(CN(CCS[*:3])[*:1])[*:2]; Glutaryl = O=C(CCCC(=O)[*:2])[*:1]; Aoc = NCCCCCCCC(=O)O; CPT = camptothecin

% displacement data for four molecules are collected here from patent US20240165282A1, “CONFORMATIONAL CONSTRAINED SOMATOSTATIN RECEPTOR 3 PEPTIDE LIGANDS AND THEIR CONJUGATES AND USES THEREOF” (STARGET PHARMA LTD., priority 2021, published 2024).

human cloned somatostatin receptor 2 (human), sequence (P30874 whole entry): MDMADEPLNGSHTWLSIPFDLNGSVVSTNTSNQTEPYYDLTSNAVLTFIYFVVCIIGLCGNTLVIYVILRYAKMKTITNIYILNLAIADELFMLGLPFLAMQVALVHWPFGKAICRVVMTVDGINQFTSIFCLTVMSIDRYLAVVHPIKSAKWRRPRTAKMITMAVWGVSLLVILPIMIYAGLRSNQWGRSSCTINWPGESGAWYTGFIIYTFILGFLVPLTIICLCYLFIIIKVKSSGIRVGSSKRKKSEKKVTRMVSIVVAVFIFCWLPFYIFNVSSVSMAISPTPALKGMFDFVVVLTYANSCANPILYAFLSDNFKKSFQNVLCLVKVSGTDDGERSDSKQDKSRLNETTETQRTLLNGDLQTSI
human cloned somatostatin receptor 3 (human), sequence (P32745 whole entry): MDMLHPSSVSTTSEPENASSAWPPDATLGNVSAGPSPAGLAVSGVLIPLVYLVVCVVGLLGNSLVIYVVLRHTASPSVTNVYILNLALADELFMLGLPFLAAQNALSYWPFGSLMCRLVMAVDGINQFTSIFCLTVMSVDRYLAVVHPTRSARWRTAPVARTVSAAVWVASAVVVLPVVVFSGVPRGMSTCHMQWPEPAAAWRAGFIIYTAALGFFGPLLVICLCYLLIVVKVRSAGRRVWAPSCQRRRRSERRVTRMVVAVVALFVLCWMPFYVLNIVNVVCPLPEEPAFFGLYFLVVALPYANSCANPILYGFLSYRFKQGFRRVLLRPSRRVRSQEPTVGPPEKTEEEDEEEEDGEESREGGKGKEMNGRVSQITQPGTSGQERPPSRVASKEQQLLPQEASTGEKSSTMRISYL
human cloned somatostatin receptor 4 (human), sequence (P31391 whole entry): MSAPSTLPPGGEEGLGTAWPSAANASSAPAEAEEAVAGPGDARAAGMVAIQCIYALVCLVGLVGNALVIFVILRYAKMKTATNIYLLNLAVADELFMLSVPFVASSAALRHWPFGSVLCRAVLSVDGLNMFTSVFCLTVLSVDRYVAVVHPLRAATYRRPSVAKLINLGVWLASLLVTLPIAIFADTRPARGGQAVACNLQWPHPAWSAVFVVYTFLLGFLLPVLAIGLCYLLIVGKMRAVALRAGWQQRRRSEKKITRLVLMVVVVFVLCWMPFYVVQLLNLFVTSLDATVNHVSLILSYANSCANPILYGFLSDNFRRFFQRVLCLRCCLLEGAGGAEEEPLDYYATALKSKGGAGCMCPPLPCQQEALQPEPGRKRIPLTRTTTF
human cloned somatostatin receptor 1 (human), sequence (P30872 whole entry): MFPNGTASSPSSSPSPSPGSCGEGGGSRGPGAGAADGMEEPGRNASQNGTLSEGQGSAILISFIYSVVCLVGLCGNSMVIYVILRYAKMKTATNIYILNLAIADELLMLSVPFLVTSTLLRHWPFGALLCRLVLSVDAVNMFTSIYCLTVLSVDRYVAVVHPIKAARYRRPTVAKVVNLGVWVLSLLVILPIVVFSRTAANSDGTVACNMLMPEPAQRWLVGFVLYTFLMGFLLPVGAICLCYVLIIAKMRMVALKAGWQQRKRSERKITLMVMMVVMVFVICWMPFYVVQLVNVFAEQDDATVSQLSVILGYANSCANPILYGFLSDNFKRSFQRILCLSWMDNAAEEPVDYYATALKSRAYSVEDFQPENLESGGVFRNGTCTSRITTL
human cloned somatostatin receptor 5 (human), sequence (P35346 whole entry): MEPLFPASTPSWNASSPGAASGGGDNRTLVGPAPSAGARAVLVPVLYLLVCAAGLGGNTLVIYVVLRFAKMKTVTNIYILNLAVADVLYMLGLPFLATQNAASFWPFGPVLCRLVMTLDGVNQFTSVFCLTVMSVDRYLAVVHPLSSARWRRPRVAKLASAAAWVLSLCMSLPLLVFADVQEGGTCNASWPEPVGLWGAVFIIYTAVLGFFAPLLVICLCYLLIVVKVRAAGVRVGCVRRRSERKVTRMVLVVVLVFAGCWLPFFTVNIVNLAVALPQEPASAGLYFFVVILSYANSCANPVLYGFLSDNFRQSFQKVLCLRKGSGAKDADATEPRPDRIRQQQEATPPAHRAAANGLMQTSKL

In the case of {CPT-Aoc}-[dF]RCF[dW]KTF[N(2-mercaptoethyl)Gly]-NH2 (disulfide 3-9) [SEQ ID NO: 27], the % displacement at 1 nM was determined as 0% in assay [1]; 12% in assay [2]; 0% in assay [3]; 0% in assay [4]; 0% in assay [5]. In addition, the % displacement at 10 nM in assay [1] was determined as 0%; in assay [2], 51%; in assay [3], 0%; in assay [4], 3%; in assay [5], 0%.

B1: SEQ ID NO: 26 (peptide)
peptide: H-XRCF[dW]KTY[N(2-mercaptoethyl)Gly]-NH2
modifications: disulfide 3-9; not fully specified (residue 1); printed as H-Phe1-Arg2-Cys3-Phe4-D-Trp5-Lys6-Thr7-Tyr8-NTEG9-NH2 (cyclo 3-9)
Turning to B1, the % displacement at 1 nM in assay [1] was determined as 0%; in assay [2], 53%; in assay [3] it was 0%; in assay [4] it was 0%; in assay [5], 0%. In addition, the % displacement at 10 nM in assay [1] was 0%; in assay [2], 86%; in assay [3] it was 1%; in assay [4], 24%; in assay [5] it was 0%.

B2: SEQ ID NO: 25 (peptide)
peptide: {DOTA}-[dF]RCY[dW]KTF[N(2-mercaptoethyl)Gly]-NH2
modifications: disulfide 3-9
SMILES: C[C@@H](O)[C@@H]1NC(=O)[C@H](CCCCN)NC(=O)[C@@H](Cc2c[nH]c3ccccc23)NC(=O)[C@H](Cc2ccc(O)cc2)NC(=O)[C@@H](NC(=O)[C@H](CCCNC(=N)N)NC(=O)[C@@H](Cc2ccccc2)NC(=O)CN2CCN(CC(=O)O)CCN(CC(=O)O)CCN(CC(=O)O)CC2)CSSCCN(CC(N)=O)C(=O)[C@H](Cc2ccccc2)NC1=O
For B2, the % displacement at 1 nM is 0% in assay [1]; 65% in assay [2]; 6% in assay [3]; 1% in assay [4]; 5% in assay [5]. The % displacement at 10 nM was 0% in assay [1]; 94% in assay [2]; 16% in assay [3]; 15% in assay [4]; 8% in assay [5].
{Niraparib-Glutaryl}-[dF]RCF[dW]KTF[N(2-mercaptoethyl)Gly]-NH2 (disulfide 3-9) [SEQ ID NO: 28]: the % displacement at 1 nM in assay [1] stood at 0%; in assay [2], 28%; in assay [3], 0%; in assay [4], 12%; in assay [5], 0%. In addition, the % displacement at 10 nM came to 0% in assay [1]; 79% in assay [2]; 0% in assay [3]; 23% in assay [4]; 0% in assay [5].
